Assay results reported in paper doi:10.1101/2019.12.24.886648.

Target: endogenous Sec22b (rat) (rat (endogenous in PC12 and in rat hippocampal neurons)) (UniProt Q4KM74)
Assay: proximity ligation

UniProt Q4KM74, sequence (Q4KM74 whole entry): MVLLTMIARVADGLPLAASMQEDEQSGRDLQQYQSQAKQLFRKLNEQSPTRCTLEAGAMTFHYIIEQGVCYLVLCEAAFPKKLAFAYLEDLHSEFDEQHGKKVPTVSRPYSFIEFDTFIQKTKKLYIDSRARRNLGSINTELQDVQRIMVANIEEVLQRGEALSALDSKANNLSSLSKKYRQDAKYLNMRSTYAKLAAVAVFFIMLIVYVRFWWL

endogenous E-Syt2 (rat hippocampal neurons) (natural protein)
PLA signal normalized for the area, cell bodies: 2.85% | PLA signal normalized for the area, growth cones: 7.64% | PLA signal normalized for the area, neurites: 5.53%
